Experimental data: paper PMC4628882

How the values were obtained:
[1] = target: mouse melanocortin 1 receptor (mouse) (UniProt Q01727)
[2] = target: mouse melanocortin 3 receptor (mouse) (UniProt P33033)
[3] = target: mouse melanocortin 4 receptor (mouse) (UniProt P56450)
[4] = target: mouse melanocortin 5 receptor (mouse) (UniProt P41149)
UniProt P41149, sequence (P41149 whole entry): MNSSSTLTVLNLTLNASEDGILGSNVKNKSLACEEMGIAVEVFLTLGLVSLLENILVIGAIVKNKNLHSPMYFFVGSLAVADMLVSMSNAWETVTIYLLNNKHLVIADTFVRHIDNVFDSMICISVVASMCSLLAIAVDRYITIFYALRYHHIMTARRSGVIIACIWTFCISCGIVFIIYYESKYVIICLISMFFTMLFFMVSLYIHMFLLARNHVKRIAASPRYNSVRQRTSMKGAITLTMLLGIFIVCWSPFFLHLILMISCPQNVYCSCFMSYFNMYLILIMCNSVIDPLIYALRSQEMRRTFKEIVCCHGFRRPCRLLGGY

UniProt Q01727, sequence (Q01727 whole entry): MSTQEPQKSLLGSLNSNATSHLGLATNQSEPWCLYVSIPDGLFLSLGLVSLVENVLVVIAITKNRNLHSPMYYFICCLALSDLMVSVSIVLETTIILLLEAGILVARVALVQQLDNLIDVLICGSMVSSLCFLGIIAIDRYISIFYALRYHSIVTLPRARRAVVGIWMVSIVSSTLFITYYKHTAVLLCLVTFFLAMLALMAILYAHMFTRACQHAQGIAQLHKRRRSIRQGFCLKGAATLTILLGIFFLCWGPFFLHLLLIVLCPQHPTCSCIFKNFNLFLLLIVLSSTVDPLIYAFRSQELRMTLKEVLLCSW
UniProt P33033, sequence (P33033 whole entry): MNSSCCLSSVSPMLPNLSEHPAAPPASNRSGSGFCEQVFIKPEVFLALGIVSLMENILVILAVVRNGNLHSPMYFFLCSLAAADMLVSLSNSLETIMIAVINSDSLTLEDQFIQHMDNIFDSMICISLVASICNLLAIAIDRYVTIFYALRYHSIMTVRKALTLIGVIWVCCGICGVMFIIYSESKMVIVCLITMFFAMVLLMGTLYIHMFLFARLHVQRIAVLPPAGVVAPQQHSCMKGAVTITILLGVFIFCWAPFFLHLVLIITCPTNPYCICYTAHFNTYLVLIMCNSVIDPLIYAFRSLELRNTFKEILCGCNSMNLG
UniProt P56450, sequence (P56450 whole entry): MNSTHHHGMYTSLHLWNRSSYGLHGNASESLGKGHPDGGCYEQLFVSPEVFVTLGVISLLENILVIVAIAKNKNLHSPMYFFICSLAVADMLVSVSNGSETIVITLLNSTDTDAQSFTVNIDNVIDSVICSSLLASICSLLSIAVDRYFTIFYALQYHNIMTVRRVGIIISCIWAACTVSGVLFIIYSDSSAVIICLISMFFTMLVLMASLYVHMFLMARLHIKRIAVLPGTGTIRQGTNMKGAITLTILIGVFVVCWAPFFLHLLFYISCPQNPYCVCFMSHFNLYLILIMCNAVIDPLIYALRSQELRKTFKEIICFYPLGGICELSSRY

agonist EC50, AlphaScreen cAMP assay on stably transfected HEK293 cells [1]	agonist EC50, AlphaScreen cAMP assay on stably transfected HEK293 cells [2]	agonist EC50, AlphaScreen cAMP assay on stably transfected HEK293 cells [3]	agonist EC50, AlphaScreen cAMP assay on stably transfected HEK293 cells [4]	Substance
0.14 nM	0.5 nM	2.9 nM	0.51 nM	α-MSH (peptide)
41000 nM				ClpB(535-548) (from UniProt P63284 535-548) (peptide)
